# Source: the nanobody polyreactivity screen of Harvey et al. (2022)
# Assay: yeast display, Sf9 membrane polyspecificity reagent, FACS + sequencing; frameworks hold sequencing errors
# Procedure, shortened: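 Galactose induction of a Saccharomyces cerevisiae BJ5465 synthetic nanobody display library ran 36–48 hours. The cells were then stained for 1 hour at 4 °C with 10% biotinylated, detergent-solubilized Sf9 membrane reagent, pulled down on streptavidin microbeads and FACS-sorted into low and high (top ~1%) gates on expression and reagent-binding fluorescence. Labels for polyreactivity follow the gate of origin.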
sequence,measurement,value
QVQLVESGGGLVQAGGILRLSCAASGRTFYINGMGWYRQAPGKEREFVASITWRGGRTYYADSVKGRFTISRDNAKNTVYLQMNSLKPEDTAVYYCIAVGLGGRAPSRWYTHYYCGQGTQVTVSS,polyreactivity (PSR sort gate),high polyreactivity
QVQLVESGGGLVQAGGSHRLSCASSGRTFYRNAMGWYRQPPGKERELVAAISSGTSTNYADSVKGRFTISRDNAKNTVYLQMNSLKPEDTAVYYCAKERPRGAPAYYSRIYDYWGQGTQVTVSS,polyreactivity (PSR sort gate),high polyreactivity
QVQLVESVGGLVQAGVSLRLRCAASGFIFWYYAMGWYRQATGKDRELVASISARDGSTYYADSVKGRFTISRYNAKNTVYLQMNSLKPEDTAVYYCNAVQRYPKYRMDYCGQGTQVTVSS,polyreactivity (PSR sort gate),low polyreactivity
QVQLVESGGGLVQAGGSLRLSCAASGSIFRGYTMGWYRQAPGKERELVAAISRSGGSTYYADSVKGRFTISRDNAKNTVYLQMNSLKPEDTAVYYCNVVYFVTTSAGYDYWGQGTQVTVSS,polyreactivity (PSR sort gate),high polyreactivity
QVQLVESGGVLVQAGGSLRLSCASSGSTFTKYAMGWYRQAPGKERELVAAISRSGGGTYYADSVKGRFTISRDNAKNTVYLQMNSLKPEDTAVYYCNAALFRGAQFDYWGQGTQVTVSS,polyreactivity (PSR sort gate),high polyreactivity
QVQLVESGGGLVQAGGSLRLSCAASGSTFAEYAMGWYRQAPGKERELVAAIRWSGGSTSYADSVKGRFTISRDNAKNTVYLQMNSLKPEDTAVYYCAAERFWYDGEVKLYVLSYYWGQGTQVTVSS,polyreactivity (PSR sort gate),low polyreactivity
QVQLVESGGGLVQAGGSLRLSCAASGRTFSRNAMGWYRQAPGKEREFVASISRSGTSTYYADSVKGRFTISRDNAKNTVYLQMNSLKPEDTAVYYCAKTYASSQGYDYWGQGTQVTVSS,polyreactivity (PSR sort gate),high polyreactivity
QVQLVESGGGLVQAGGRLRLSCAASGRIFYYNAMGWYRQAPGKERELVATITGSGGSTYYADSVKGRFTISRDIAKNTVYLQMNSLKPEDTAVYYCAKRIYRYQYRPENYWGQGTQVTVSS,polyreactivity (PSR sort gate),low polyreactivity
QVQLVESGGGLVQAGGSLRLSCAASGRIFLSNGMGWYRHAPGKERELVAGITTGGGDSTYYADSVKGRFTISRDNAKHTVYLQMNSLKPEDTAVYYCNADSVYAGFDYWGQGPQVTVSS,polyreactivity (PSR sort gate),low polyreactivity
QVQLVESGGGLVQAGGSLRLSCAASGITLGYYAMGWYRQAPGKERELVAAITWSGTSTYYADSVKGRFTISRDNAKNTVYLQMNSLKPEDTAVYYCAAGFISQYQERGYWGQGTQVTVSS,polyreactivity (PSR sort gate),low polyreactivity
QVQLVESGGGLVQAGGSLRLSCAASGFIFRSYAMGWYRQAPGKERELVAAITSGGRTFYADSVKGRFTISRDNAKNTVYLQMNSLKPEDTAVYYCAAGGYRTGFNYWGQGTQVTVSS,polyreactivity (PSR sort gate),high polyreactivity
HVQLQESGGGLVQAGGSLRLSCAASGSISRNYDMGWYRQAPGKEREFVAGISGGAITYYADSVKGRFTISRDNAKNTVYLQMNSLKPEDTAVYYCAADTGVYQYHSYWGQGTQVTVSS,polyreactivity (PSR sort gate),low polyreactivity
QVQLVESGGGLVQAGGSLRLTCAASGSIFFDYGMGWYRQAPGKERELVATITRGTGSTYYADSVKGRFTISRDNAKNTVSLQMNSLKPEDTAVYYCAESYSYYNSYDYWGQGTQVTVSS,polyreactivity (PSR sort gate),high polyreactivity
QVQLVESGGGLVQAGGSLRLSCSASGYISHYAMGWYRQAPGKERELVAAISRRGGSTYYADSVKGRFTISRDNAKNTVYLQMNSLKPEDTAVYYCNKATSYFTVRGYDYCGQGTQVTVSS,polyreactivity (PSR sort gate),high polyreactivity
QVQLVESGGGLVQAGGSLRLSCAASGSILGYYAMGWYRQAPGKERELVAGIDYSAGSTYYADSVKGRFTISRDNAKNTVYLQMNSLKPEDTAVYYCAADVDSYWGTYDYWGQGTQVTVSS,polyreactivity (PSR sort gate),low polyreactivity
QVQLVESGGGLVQAGGSLRLSCAASGSIFWWYAMGWYRQAPGKERELVAAIRWSGTTTFYADSLKGRFTISRDNAKNNVFLQMKSLKPEDTAVYYCNAEGGIWGVTSGYDYWGQGTQVTVSS,polyreactivity (PSR sort gate),low polyreactivity
QVQLVESGGGLVQAGGSLRLSCAASGSTFYYYAMGWYRQAPGKERELVAAINYNGGSTHYADSVKGRFTISRDNAKNTVYFQMNSLKPEDTAVYYCAAKYRLSYTHGYWGQGTQVTVSS,polyreactivity (PSR sort gate),low polyreactivity
QVQLVESGGGLVQAGGSLRLSCAASGRIFPTNAMGWYRQAPGKERELVASIDSGGSTKYADSVKGRFTISRDNAKNTVDLQMNSLKPEDTTVYYRALQVLNYDYWGQGTQVTVSS,polyreactivity (PSR sort gate),low polyreactivity
QVQLVESGGGLVQAGGSLRLSCAASGSTFRTYVMGWYRQAPGKERELVAAITRSGVSTSYADSVKGRFTISRDNAKNTVYLQMNSLKPEDTAVYYCAATKYDDGYSWTHYYYWGQGTQVTVSS,polyreactivity (PSR sort gate),high polyreactivity
QVQLVQSGGGLVQAGGSLRLSCAASGRIFVDNAMAWYRQAPGKERELDAGLTTGGSTYYADSVKGRFTISRDNAKNTVYLQMNSLKPEDTAVYYCNARDHALHRDVLYWYGFDYWAQGTQVTVSS,polyreactivity (PSR sort gate),low polyreactivity
QVQLVESGGGLVQAGGSLRLSCAASGSILTHYAMGWYRQAPGKERELVAGIPWSGTSTYYADSVKGRFTISRDNAKNTVYLQMNSLKPEDTAVYYCNARHYGWGFAWKYDYWGQGTQVTVSS,polyreactivity (PSR sort gate),low polyreactivity
QVQLVESGARLVQAVGSLRLSCAASARILTFNAMGWYRQAPGKEREVVASITSDVSTYYADSVKGRFTISRDNAKTTVYLQMNSLKPEDTAVYYCAADGWYTYVGRLDYWRQGTQVTVSS,polyreactivity (PSR sort gate),low polyreactivity
QVQLVESGGGLVQAGGSLRLSCAASGSTLRPYAMGWYRQAPGKERELVAAISKSGASTYYADSVKGRVTISRDNANNTVYFQMNSLKPEDTAVNYCNAGRGTWETLYGYDYWGQGTQVTVSS,polyreactivity (PSR sort gate),high polyreactivity
QVQLVESGVGLVQAGGSLRLSCAASGGIFGKYVMGWSRQAPGKERELVAAITLRGGSTYYADSVKGRFTISRDNAKNTVYLQMNSLKPEDTAVYYCPRRAYQNWYNYWGQGTQVTVSS,polyreactivity (PSR sort gate),high polyreactivity
QVQLVESGGGIVQAGGSLRLISAASGIIIDYYAMGWYRQAPGKERELVAAITSGGSTSYADSVKGRFTISRDNAKNTVYLQMNSLKAEDTAVYYCNTEPSGYESGYWGQGTLVTVSS,polyreactivity (PSR sort gate),low polyreactivity
QVQLVESGGGLVQAGGSLRLSCAASGRIFTSNTMGWNRQAPGKERELGAAITSSGGYMYYADSVKGRFTISRDNAKNTGYLQMNSLKPEDTAVYYCAADTIGYHYWYDYWGQGTQVTVSS,polyreactivity (PSR sort gate),low polyreactivity
QVQLVESGGGLVQAGGSLRLSCAASGSTFVANTMGWYRQAPATERELVASITSGDSTNYADSVKGRFTISRDNAKNTVYFQMKSLKPEDTAVYYCAAETVWYYVGGQLIYYYWGQGTQVTVSS,polyreactivity (PSR sort gate),low polyreactivity
QVQLVESGGGLVQAGGSLRLSCAASGFIFGGNAMGWFRQAPGKERELVAAIRSGGSTYYADSVKGRFTISRDNAKNTVYLQMNSLKPEDTAVYYCAAELYDVYDLDYWGQGTQVTVSS,polyreactivity (PSR sort gate),low polyreactivity
QVQLVESGGGLVQAGGSLRLSCAASGSTFPSNAMGRYRQAPGKERELVAVISTSGVRTYYADSVKGRFTISRDNAKNTVYLQMNSLKPEDTAVYYCAARTRSYGGNGYRYPFDYWGQGTQVTVSS,polyreactivity (PSR sort gate),high polyreactivity
QVQLVESGGGLVQAGGSLRLSCAASGITFVRNTMGWYRQAPGKERELVAAISKSGDNTYYADSVKGRFTISRDNAKNTVYLQMNSLKPEDTAVYYCNKAYRKFYYGYDYWGQGTQVTVSS,polyreactivity (PSR sort gate),high polyreactivity
QVQHVESGGGLVQAGVSLRLSCAASGFTFGSNAMGRYRPAPGKERELVAAINYSGVRTYYADSVKGRFTISRDNAKNTVYLQMNSLKPEDTAVYYCAKQRSKPNSFDYWGQGTQVTVSS,polyreactivity (PSR sort gate),high polyreactivity
QVQLVESGGGLGQAGGSLRLSCAASGFTFYYNAMGWYRQAPGKERELVATIRGTGSTNYADSVKGRFTISRDNAKNTVYLQMNSLKTEDTAVYYCDAPVDYQGDYWGQGTQVTVSS,polyreactivity (PSR sort gate),low polyreactivity
QVQLVESGGGLVQAGGSLRLSCAASGGIFGYYTRGWYRQAPGKEREVVAAISRRGGSTYYADSVKGRFTISRDNAKNTVYLQMNSLKPEDTAVYYCAAGLSSGGTHYDYWGQGTQVTVSS,polyreactivity (PSR sort gate),high polyreactivity
QVQLVESGGGLVQAGGSLRLSCASSGFTFIYYAMGWYRQAPGKERELVAAISGSGSTYYADSVKGRFTISRDNAKNTVYLQMNSLKPEDTAVYYCAADVTGGRKYDYWGQGTQVTVSS,polyreactivity (PSR sort gate),low polyreactivity
QVQLVESGGGLVQAGGSLRLSCAASGSTFGGNAMGWYRQAPGKERELVAVISKRGGSTYYADSVKGRFTISRDNAKNTVYLQMNSLKPEDTAVYYCAAGYFIRTRSRYRYDYWGQGTQVTVSS,polyreactivity (PSR sort gate),high polyreactivity
QVQLVESGGGLVQAGGSLRLSCAASGSTFYYNVMGWYRQAPGKEREFVAAITQRGGSTYYADSVKGRFTISRDNAKNTVYLQMNSLKPEDTAVYYCAARTRYDFDWGQGTQVTVSS,polyreactivity (PSR sort gate),high polyreactivity
QVQLVESGGGLVQAGGSLRLSCAASGRIFNKNAMGWYRQAPGKERELVAAITYSGGSTYYADSVKGRFTISRDNAKNTVYLQMNSLKPEDTAVYYCARDLYYVYSFAPYRYEYWGQGTQLTVSS,polyreactivity (PSR sort gate),low polyreactivity
QVQLVESGGGLVQAGGSLRLSCAASGRIFGYYAMEWNRQAPGKERELVATITFGGGSTYYADSVKGRFTISRDKAKNTVYLQMNSLKPEDTAVSFCAAEGVHYDGDYGTGYDYWGQCTQVTVSS,polyreactivity (PSR sort gate),low polyreactivity
QVQLVESGGGLVQAGGCLRLSCAASGRTFPRYAMGWYIQAPGKVRELVAVISFSGDSTSYADSVKGRFTISRDTAKNTVYIQMNSRKPEDTAVYYCIADYKSTVFRYSGSRNYWGQGTQVTVSS,polyreactivity (PSR sort gate),low polyreactivity
QVQLVESGGGLVQAGGSLRLSCAAYGNTFYPYTMGWYRQAPGKERELVADITYIGGDTYYADSVKGRFTISRDNAKNTVYLQMNSLKPEDTAVYYCNKDGGYFETYHTYTLDDYWGQGTQVTVSS,polyreactivity (PSR sort gate),low polyreactivity
QVQLVESGGGLVQAGGSLRLSCAASGRTFYYYAMGWYRQAPGKERELVAAISGSGTNTYYADSVKGRFTISRDNAKNTVYLQMNSLKPEDTAVYYCAAEYFGFYTDGGVFDLYYWGQGTQVTVSS,polyreactivity (PSR sort gate),low polyreactivity
QVQLVESRGGLVQAGGSLRLSCAASGSTFRYYAMGWYRQAPGKERELVATITARGGSTYADSVKGRFTISRDNAKNTVYLQMNSLKPEDTAVYYCAKRYGRYWDSTYSGDYDYWGQGTQVTVSS,polyreactivity (PSR sort gate),high polyreactivity
QVQLVESGGGLVHAGGSLRLSCAASGFILTGYTMGWYRQAPGKEMELVAAISYRGGSTYYADSVKGRFTISRDNAKNTVYLQMNSLKPEDTAVYYCNAVWSNFRLGYDYWGQGTQVTVSS,polyreactivity (PSR sort gate),high polyreactivity
